Values of other authors as cited in PMC7662862.

Columns and labels:
[1] = target: Merlin N-terminal part (FERM) (Homo sapiens) (UniProt P35240); assay: SPR
[2] = target: CRB3 (Homo sapiens) (UniProt Q9BUF7); assay: ITC
Sequence of UniProt Q9BUF7 (Q9BUF7 27-120): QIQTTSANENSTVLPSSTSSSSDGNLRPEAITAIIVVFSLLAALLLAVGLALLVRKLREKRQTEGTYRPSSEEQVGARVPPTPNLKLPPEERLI

Sequence of UniProt P35240 (P35240 22-311): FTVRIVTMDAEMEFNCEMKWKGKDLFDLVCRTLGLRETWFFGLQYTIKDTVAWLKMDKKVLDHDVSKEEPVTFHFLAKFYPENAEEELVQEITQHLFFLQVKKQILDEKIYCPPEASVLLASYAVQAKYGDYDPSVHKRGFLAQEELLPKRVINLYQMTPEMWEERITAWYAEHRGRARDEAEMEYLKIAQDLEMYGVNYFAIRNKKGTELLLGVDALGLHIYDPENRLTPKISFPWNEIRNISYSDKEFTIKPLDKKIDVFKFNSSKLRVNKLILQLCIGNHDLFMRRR

Row | Kd [1] | Kd [2] | Substance
1 | 0.0037 µM | – | MPP1 (from UniProt Q00013)
2 | – | 0.07 µM | MPP5 PDZ-SH3-GUK (from UniProt Q8N3R9)
